Biological target: SUMO1 (construct transfected into HSW cells in Example 8) (human) (UniProt P63165)
Experiment: cell-based or functional assay

Chain of UniProt P63165 (P63165 2-97 limits assumed): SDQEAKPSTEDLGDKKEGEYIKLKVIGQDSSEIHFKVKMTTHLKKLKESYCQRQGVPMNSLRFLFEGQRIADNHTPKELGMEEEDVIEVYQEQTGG

Aβ production (secreted Aβ levels by ELISA, HSW cells): 25 % reduction
Substance: N-terminal deleted BACE1-CTF (BACE1 C-terminal fragment, residues 456-501) (peptide)

Reference: patent US20140186357A1
